Experimental data from article PMC7242751, “Novel ssDNA Ligand Against Ovarian Cancer Biomarker CA125 With Promising Diagnostic Potential”.

Target: CA125 (native antigen) (human, UniProt Q8WXI7 1-14451)
Experiment: nitrocellulose membrane binding, elution and nanodrop quantification; CA125 20 U/mL immobilized; 1 mM Mg2+ in binding buffer; SELEX binding buffer 10 mM PBS, 1 mM MgCl2, 0.01% herring sperm DNA, 25 C; KD in binding buffer (composition not restated), 2 h at RT; pH not stated
Details: protein: native

| Binder | Kd [nM] |
| --- | --- |
| Apt 2.26 (ssDNA) DNA: TAGGGAAGAGAAGGACATATGATTTTAGGGAAGAGAAGGACTTTTATGCCGCCTTGACTAGTACATGACCACTTGA | 166 |
| Apt 2.43 (ssDNA) DNA: TAGGGAAGAGAAGGACATATGATGATCAACAACACAAGGGGGGGGGTATCTAGTTGACTAGTACATGACCACTTGA | 239 |
